Measurements as given in the DeepSol protein solubility set.

assay: soluble on expression in E. coli; label from the status in PepcDB or PDB records

Soluble on expression in E. coli, soluble:
MEVGMIPRVYLGHEWFGAERILSEYQVPEDCGAQVLFLGIPRNAPEDGGNIEALEYEAYPEMAIKEMEKIRQETIEKFGVKEVFIHHRLGLVKIGEPSFLVLAVGGHREETFKACRYAVDETKKRVPIWKKEIFKEGKGEWVLGEKKNASGQTK
MAHHHHHHMRAQSDLSPSSVSELRSKLKGVRVEVGSLVSFRDEPAFEMVMRLNKRHNGNLVSAVLSKGNAACGLGGDASGSGEGIGEGRVMADRSRHVEELRMVFIPKAYGAFLEDEMQKWLDPFRGRGEANRTKRKRDEVDDNEVTDIDSDVDTDECDDADSFRSV
MSLKSAKELLFLALGGSGEIGMNVNLYCCDGKWLMVDLGMTFADPYYPGIDLVFADLEFIEERLDDLVGIVLTHAHEDHIGAVPYFAQDLGVPLYATPFTAKLVHEKLLEAGIEKEVELNVIDHLDPFQLGPFGLRYIPLAHSIAEGNALLIDTPHGRIFHTGDWKLDDEPRIGTPATEEELTAIGDEGVLALVCDSTNVFNPNPSGSEGAVRAGLLEAVAAQKGRRVVVTTFASNVARLQTLGEVAEATGRRVCVAGRSLDRIIRVAQSCGYLKNFPETVHMDDAMDLPRGELLVLATGGQGEPRAALARIAADQHPVKLEKGDAVLFSTRQIPGNELAIGRVQNALVEKGVRIVTDRQSMIHVSGHPGRPELMALYEWLRPEILVPVHGEIRHMAEQAQLGLDEGIPKAIVQKNGDLIRLAPNGPKKLSEEGHHHHHH

Soluble on expression in E. coli, not soluble:
MGSDKIHHHHHHMQQKKTTKEEYQKCVNVVVEYINQHLGEDIDLKSLARISNFSPFYFHRIMKAFLGEPIGTFIVRTRTEAAARLLRYSDIPIADIAYRIGYSSPSSLSKVFRQFYGISPLEYRNNKNFVIMKPAIIRPDLELKSEIKSIPARNVIYIRLSGDYKLNDYGGTWGRLWQFIKEQKLPMGDFSPLCIYHDDPKVTPAEKLRTDVCMVMPVQVAPKGDVGFKTLPAGRYAIFLYKGTYDNLQAVYDTIYGKCLPEMECTLRDEPSAERYLNNPCETAPEELLTEIYIPVE
MGSDKIHHHHHHMAFNLDALASVVVDDSIKGIPFGARLGIADIANQGWNVLAGDLPLPAAIIRADALAHNSRWMQRFVSERGALIAPHVKTTMCPQIIARQIADGAWGVTVATVQQMRVCRNFGADRIILANQAVGRSELDAITAMVKEPDLDFMMIVDSAVGIEAAAEAVRRNRLDRPLQLLLERGYPGGRTGCRTNDIALALARQIRATPELRLVGIEAFEGLIQTENGSPEQAVGLFMDEIAALFGLCADDGLFESDAPLVTAGGSSHYDIVIDRLAHCTARVVTRSGCYVTHDSGLYRIAHQRLQAKIGEQDGLRRALEIWTYVQSIPEPGLALLTAGRRDCGTDSGFPVPLLLSSAGAYPRDLPPGCEVINLNDQHAYMRFPPDLPLAVGDRVGLGISHPCTTFDKWQIIYLVDSDYRVIEAMKTFF
MIEWQDLHHSELSVSQLYALLQLRCAVFVVEQNCPYQDIDGDDLTGDNRHILGWKNDELVAYARILKSDDDLEPVVIGRVIVSEALRGEKVGQQLMSKTLETCTHHWPDKPVYLGAQAHLQNFYQSFGFIPVTEVYEEDGIPHIGMAREVIQALEHHHHHH
MFRRIFDAFNFMGSDEESTAAPVDQEGQEQLIDEDGWVNFNHPTESGDSDEFAFIENPEILEMGDETTIEVEMRTTPCPEVEAIKRREEYNLAKAKTAFRNHLESVMFADPDSGKDVRTFKSTHGSGRSVPTASGSIRRLNTQSQRSKKSSGKSNDRKTHRVSDLQLADA
MRLEDEIKQVKAFKNDYNKAVVNLIFTYNWLESSSKAFFKDFDLTSQQFNILRILKGQHPNPSTINLLRDRMLDKMCDASRLVERLRIKGLVERSQASSDKRAVDIFITKKGEELLAKIEVEFPAFEEKLHTLSAEEIVVFNNLLDKLRG
RHNLIQRKRELDKQNELYRAIISASFAFVFQIDTEARFSFVSPSVEDFTGYRPDMLNGEPISILGSDEQAIKEARDYLARVLNDGEAIQVRGHPIETRSGNTVYGDIRAEPIYEPSVASSARTTENIIGAQVMVRDAS
MLPETTTLQPLPSVTTIMNEPPARSPMEDYYLFNQFQYNQNPYVYPPQPVYYNTWQDASTHHFDPFQSYQIPSPYEQPIQSSMCTTPLQPLEDSRIIFDESLTKNENEQKSFVEQDSSYESSGNRFGSQKGKKIAKVIRDACCSHCSTTTTTLWRKNDEGNLECNACNLYYRHNKVKRPLSLCKQKPTTRKRRQAKKE
MENFLHKWFASEYDLYEEDLEKASALVNSHNIRTVVNVMFQHPIFTVNMMAALTSLPEATVRRYLNRFEEQQLIFSDGRMRSKTYYYYNLLDQLR
KEFFLAKHAEQKKRHHKYNDTEYNLEPNVKGSPGGLRDIQTILWVARRQYGTLNLHALAGEGFLLGSENALLASSQEFLWKVRYALHMLAGRSEDRLLFDYQVRIAGLLGYEDNDAKLAIERFMQKYYRVVMSIAELSDLIIQHFEEVILSDDDGTPQPINSRFQLHDGYIEATNPNVFRRTPFAMLEIFVLMAQHPEIKGVRADTIRLL
MTHNIHDNISQWMKSNEETPIVMSSRIRLARNLENHVHPLMYATENDGFRVINEVQDALPNFELMRLDQMDQQSKMKMVAKHLISPELIKQPAAAVLVNDDESLSVMINEEDHIRIQAMGTDTTLQALYNQASSIDDELDRSLDISYDEQLGYLTTCPTNIGTGMRASVMLHLPGLSIMKRMTRIAQTINRFGYTIRGIYGEGSQVYGHTYQVSNQLTLGKSELEIIETLTEVVNQIIHEEKQIRQKLDTYNQLETQDRVFRSLGILQNCRMITMEEASYRLSEVKLGIDLNYIELQNFKFNELMVAIQSPFLLDEEDDKSVKEKRADILREHIK
MAHHHHHHMAKERNLDLKALQRSKRTVAHAYDAGVRSVPPALPLDIGGALAQVLTTRVTTCFGLHLIVTAQNEDAEQQSAPSLLMDVAVRAHLERLPLPVLHRLISDLCEVRAAWKRDLLAPSAAAAVQEQALLGRESINALLYHVCLWQRRYPLELLSAVLSFYDEHKHLFSPATSERCSASVQLESLLEEVQCLQYPDLSDVPGLIRCDVFMTYPHMPLGEQRQLMHTIAAAVVHRKAAGGLQRQSSCMGTEEKYVTDNLLRHSRTPPDPRLLLRSFVVDGAAAIPERFCTDMPTQTYHEMRAAFERHKHDGVRRLAAQDYGQAVTELTPPPPPPPPQPAASSVPSS
MSVNPFFDPRTLGEMVFGDNGRLDREYVPISENNDDLSDCRNEIVDTHEKFSVNLNVPDVKPEELKINLEGRKLSIKAEHQEIENDNISTTQTYSKSIVLPEDVDVTHLSSNLSEDGKLLIEVPKVEAKKTNFFGFLSKFRCMPESQ
MSSQLNHGTLPKISIVTPSYNQAQYLEATMRSILDQGYPDLEYIVMDGGSTDGSTEIIQKYSDRLTYWESAPDKGQADAIFRGFERATGEIFCYVNSDDLLLPGSLEMVGRWFREHPDEEWVVGGTILIDGLGIPIIRSRRGLPEADLGVKVTFKRLLLHNCGGFHQPASFWRRSAFEQAGGFDRTLRFCFDYDLFFRLAKRRPSGRIRSFLAAFRYHPASKTSTLESVFREENETLWRRYGRYLYSENQIRNFAHKQTTRDMWNNRIIKLGFYLKILNVSNAIGSLEHHHHHH
MSNTTGQWCDGNSVELLINGEDFYARVFECIRAARKEVLIETFIIFEDRIGEGLQQALLQAAANGAKVVVTVDDYGTSDLSSVFVKTMIDAGIQIQLFDPRPRFMGMRTNLFRRLHRKVVVIDGELGFIGGINYSVDHMTDTGVTAKQDYAVLVRGPIVGDIHHSALNMLSKVVRDKLPPIALKLDRAGDASMLLAER
MLPIIYSLRNCPYAMRARLAIFKAKQAVLLRDLVLSHKPAEMIAVSPKGTVPVLVLANSTVIEESLEVMLWALQQTDPDDLLHCQQEGALPEMLSLINEFDNGFKTSLEAYKCAKRYQEDNIAQCRVVCQQYIEQLEQRLTEHMFLMSDKESLADIALVPFIRQFARVERQWYLQSPYPRVRRWLNSYLQSPVFTKVMAKHPLWLDNQQDILFGVN
MGSDKIHHHHHHMPEQNSFPPEVDHTRPNPARIYDYGLGGHHNFAADRDQFEKLLEVDPDARLVVSANRAFLRRAVRYCLRQGITQFLDLGSGIPTVGNVHEAAHQLNPRARVVYVDNEPIAVAHTRRLLRENENAEIVQADLRDPDAILGAPETQRLLDLSKPVGLMMVAVLHWVPSADVAGLLSRYREVLAPGSYLAISHLTSEHLPEQMGEVEDVFAETTEPVVYRPRSEAVKLFEGFELVPPGVVYTSQWQSEPYEMVEPPERTKIWAAVGRKL
MGSDKIHHHHHHMGRTLGVGTVTPNLIGAHRDLIQRYGGHYPVISAHIWFDGTGLDPRYQYVTVLRDPVDRFISWLYFIDKDVELTEDTRELKVGAQLFLRSEGEETNQTFMRSASNPYVNNFSSVVMRCNASWQQKMVAALSVLTDYDLVGFQADLPQFIEQLAKLLHVINYVSLRPVNVTSSRPQRDGISEKMLHAIRKLTEWDLELYSEIQRMANRQAPTIGVSCNIQPFNREFGDWGFKARKSSNVYWLGSYLTHYLAKDLSTRNGSVAGRALVSNGAKGYLCHGPYLDLDPGHYCAVANGVWITRGVTCNADVCSGKGAVLHAEETLVDLGAKGTEWSLPVDFALDEETTSVEFRLMVPDEHQVQLNTVTIVNEKMVMTILGLEPDSHAANRGVEKQNSGSTLIFPVQMSSKIGLRVGTTLQTTGQEGFLCYGPYMTLSRGIYRVNLMGSIGPQGLAGAYADIVCDAGKKGIHNEPLAITPFNEYVDSTVGKPWMFFLEQDVSDLEIRLWVSNQTEINLCGIVLQQIEET
MGSDKIHHHHHHMEVSEFCLEGRFINFVIKDGYKLKGLMLGTHEGEFYIKLAKQLRAAFDLRLPPGTWLQVVGYKKHDLKDGTITLKAERVMAARSEMGRVQTTTPVQEPPSIHNVKVKPAKAKATILVCQKSDCMKRGGKAVCQALEAALSDRGLEDQVTIKGTGCMKNCKAGPNLVMPDKTRHSRIQAAQVPRLMDKHFGDKSLEAQPENLREVAITNGKLC
MGSSHHHHHHGKTIFVIVPTNEEQVAFLEALAKQDELNFDWQNPPTEPGQPVVILIPSDMVEWFLEMLKAKGIPFTVYVEEGGSENLYFQGGGGGGPFRYQISEYFERQRDGVHVELRRKAVKYYAEMERMHRRQALVNLESIQDDNAPHRLSAVLSVESIQAGHLDQEYNYWYAHERDAIRAEKLMMEIRELKAKMPADSA
MKLIIHQKWYLQQVKDTFTNLQAPRLHWALRNALNTAAKQVERFTEKQVADLSSAQIKRIRRGVYIKEKATARFLETDLIGSGTPLPLKFFKAKETKHGVTYTLFGKKQILTHGFIKGGSFPKRVDLKMGGNVFQRDDGDQFPIAKQEGPSIAKVMSKPEIASAIAQYANERLTKNIQRQLARQEYAANKKG
MRLERVLEEARAKGYPIEDNGLGNLWVVLPRERFKEEMAHYKAMGFNFLADIVGLDYLTYPDPRPERFAVVYELVSLPGWKDGDGSRFFVRVYVPEEDPRLPTVTDLWGSANFLEREVYDLFGIVFEGHPDLRKILTPEDLEGHPLRKDYPLGETPTLFREGRYIIPAEFRAALTGKDPGLTFYKGGSRKGYRSLWADLKKAREVKGLEHHHHHH
MIRRLPMTDSRGMNSDKYGIPNIHIRTTPGPDMDKQTKQTNDSGFNSYSRKYHIPRLWYEPARGIYCSDSVSYSWFIQFLQGGIVHVLCRTSLLSISRILRKRGQKVYFGLRKRHEKLVGFASGHGLCLPGPFQHDPIAPVLLPRFPFVRQGRLVRSVLHTGLFE
